Assay results published in patent US20250213686A1, “COMPOSITIONS AND METHODS FOR ENGINEERING TREG CELLS FOR TREATMENT OF DIABETES” (Seattle Children's Hospital (dba Seattle Children's …, priority 2021, published 2025).

Key:
Type in all cases: cell-based, human
[1] = tested on: T1D2 TCR-expressing CD4+ T cells; test: Alanine-substituted and potential off-target peptide stimulation of T1D2 TCR cells
Method: FIGS. 31A-31D show tolerance of T1D2 to substitutions in IGRP 305-324 peptide. FIGS. 31A and 31B show activation of T1D2 TCR-expressing CD4+ T cells, as measured by CD154 expression intensity (FIG. 31A) or % CD137-expressing cells (FIG. 31B) in the presence of antigen-presenting cells pulsed with one of a panel of alanine-substituted peptides. T cells were cultured for 20 hours in the presence of HLA-DR4-expressing K562 cells that had been pulsed with IGRP 305-324 peptide, or one of a panel of peptides having an alanine substitution at different positions, and analyzed by flow cytometry. FIGS. 31C and 31D show activation of T1D2 TCR-expressing CD4+ T cells, as measured by CD154 expression intensity (FIG. 31C) or % CD137-expressing cells (FIG. 31D) in the presence of antigen-presenting cells pulsed with one of a panel of potential off-target peptides derived from pathogens of human relevance. “Control” indicates CD4+ T cells expressing ZNT266 TCR. […]
After 20 hours of co-culture, expression of surface markers CD154 and CD137 (among CD3+CD4+ cells) were analyzed by flow cytometry, to quantify the potential for off-target activation of cells expressing T1D2 TCR. […]

[2] = tested on: IGRP 305-324 or IGRP 241-260 peptide presented by HLA-DR4-expressing K562 cells; test: Activation marker response of TCR-transduced CD4+ T cells to cognate peptide; conditions: for cognate peptide concentration required for maximal surface marker expression: relative to cells expressing T1D5-1; for upregulation of functional markers CD154, CD69 and CD137: stimulation with cognate peptide overnight, day 8
Method: (§1) FIGS. 29A-29E show editing of CD4+ T cells to express one of a panel of TCRs, and phenotypic characterization of edited cells.
FIGS. 30A-30B show dose response of T1D TCR-expressing CD4+ T cells to stimulation with IGRP 305-324 peptide. Cells were cultured in the presence of HLA-DR4-expressing K562 cells for a 20 hours, and analyzed by flow cytometry. […] Dashed lines=50% maximum response of each cell population (by donor).
CD4+ cells were thawed and stimulated with anti-CD3/CD28 Dynabeads in vitro (day 0). On day 1 post-thawing, cells were inoculated with a lentivirus encoding a T1D2, T1D5-1, or T1D4 TCR (day 1). On day 3 post-thaw, Dynabeads were removed. In parallel, artificial antigen-presenting cells were generated by transducing K562 cells with a lentivirus encoding an HLA-DR4 capable of presenting IGRP 305-324 or IGRP 241-260. On day 7 post-thaw, transduced CD4+ T cells were stimulated by addition of a given amount of cognate IGRP peptide in the presence of transduced K562 cells and culture overnight. On day 8 post-thaw, expression of activation-associated markers CD69, CD137, and CD154 (FIG. 29B).
In another experiment, CD4+ T cells transduced with a lentivirus encoding T1D2 TCR or control TCR (ZNT266) were cultured in a 3:1 ratio with K562 cells pulsed with IGRP 305-324 peptide at a range of concentrations, as described in the preceding paragraph. After 20 hours of co-culture, expression of surface markers CD154 and CD137 were analyzed by flow cytometry, to quantify sensitivity of T1D2 TCR-expressing cells to cognate peptide IGRP 305-324.

[3] = tested on: cognate peptide (IGRP305-324, IGRP241-260, PPI76-90) and APC; test: Peptide dose response (functional avidity) of TCR-transduced CD4+ T cells; conditions: for IGRP305-324 peptide concentration at which proliferation was reached: T1D5-1: similar to about 70% proliferation, T1D2: proliferation only at this concentration
Description: FIG. 39A depicts a graph showing peptide dose response of T cells expressing T1D2, T1D4, or PPI76 TCR. CD4+ T cells transduced with T1D2, T1D4, or PPI76 TCR were co-cultured with APC in the presence of various concentration of their cognate peptide, IGRP305-324, IGRP241-260, PPI76-90, respectively for 4 days. Representative of three independent experiments.
FIG. 39C depicts a graph showing peptide dose response of T cells expressing T1D2, T1D5-1, or T1D5-2 TCR. CD4+ T cells transduced with T1D2, T1D5-1 or T1D5-2 TCR were co-cultured with APC in the presence of various concentration of their cognate peptide, IGRP305-324 for 4 days. Representative of three independent experiments. For dose response of T cells in A and C, T cells were labeled with CTV before the co-culture and cell proliferation was measured by CTV dilution.
Therefore, these unique features were used as way to begin to explore the impact of TCR affinity on islet-specific EngTregs function. […] We measured proliferation of polyclonal islet-specific Teff in the presence of islet-specific peptides and mDC and EngTregs with T1D2, T1D4 or PPI76. The data were normalized by suppressive activity obtained from suppression assay set up in parallel using CD3/CD28 beads (FIG. 39G). This latter assay provided a baseline control for EngTreg function, as this activation method is not impacted by TCR avidity. […] We then compared T1D2, T1D5-1 and T1D5-2, each of which recognize the same cognate peptide, IGRP305-324, in the context of HLA-DR0401 (Table E6-1) (31). […] Similarly, we measured suppressive capacity of EngTregs expressing T1D2, T1D5-1, or T1D5-2 on proliferation of polyclonal islet Teff in response to islet-specific peptides.

[4] = tested on: IGRP 305-324 or IGRP 241-260 peptide presented by HLA-DR4-expressing K562 cells; test: Cytokine production of TCR-transduced CD4+ T cells to cognate peptide; conditions: 5 hours stimulation with cognate peptide, day 14
Method: as §1
On day 14, transduced CD4+ T cells were stimulated for 5 hours with cognate IGRP peptide in the presence of transduced K562 cells, and the production of cytokines IFN-γ and TNF-α to evaluate T cell activation (FIG. 29D).

[5] = IGRP 305-324, 20 hours co-culture, 3:1 with K562 cells

| EC50 of % CD137-expressing cells [2, 5] [µg/mL] | EC50 of CD154 expression [2, 5] [µg/mL] | Molecule | recognition of predicted potential off-target peptides derived from human pathogens [1] | sensitivity to stimulation with cognate peptide IGRP 305-324 ([2]; compared to cells expressing ZNT266 TCR) | cognate peptide concentration required for maximal surface marker expression [2] | upregulation of functional markers CD154, CD69 and CD137 [2] | IGRP305-324 peptide concentration at which proliferation was reached [3] [µg/mL] | functional avidity ([3]; comparison of T1D2, T1D4 and PPI76 TCR) | functional avidity ([3]; comparison of T1D2, T1D5-1 and T1D5-2 (same cognate peptide IGRP305-324)) | IFN-γ and TNF-α production [4] | cognate peptide concentration giving similar (more than 20%) proliferation [3] [µg/mL] |
| --- | --- | --- | --- | --- | --- | --- | --- | --- | --- | --- | --- |
| 0.03 to 0.1 | 0.1 to 0.3 | T1D2 TCR: TCR specific to IGRP 305-324, HLA-DR0401 restricted; TCRα SEQ ID NO: 9, TCRβ SEQ ID NO: 10 (protein) alpha: MAMLLGASVLILWLQPDWVNSQQKNDDQQVKQNSPSLSVQEGRISILNCDYTNSMFDYFLWYKKYPAEGPTFLISISSIKDKNEDGRFTVFLNKSAKHLSLHIVPSQPGDSAVYFCAATRTSGTYKYIFGTGTRLKVLANIQNPDPAVYQLRDSKSSDKSVCLFTDFDSQTNVSQSKDSDVYITDKTVLDMRSMDFKSNSAVAWSNKSDFACANAFNNSIIPEDTFFPSPGKGSFGAFAGCFLASGMARFCPELWSMMSKTPLIGGLG beta: MSISLLCCAAFPLLWAGPVNAGVTQTPKFRILKIGQSMTLQCTQDMNHNYMYWYRQDPGMGLKLIYYSVGAGITDKGEVPNGYNVSRSTTEDFPLRLELAAPSQTSVYFCASSPWGAGGTDTQYFGPGTRLTVLEDLKNVFPPEVAVFEPSEAEISHTQKATLVCLATGFYPDHVELSWWVNGKEVHSGVSTDPQPLKEQPALNDSRYCLSSRLRVSATFWQNPRNHFRCQVQFYGLSENDEWTQDRAKPVTQIVSAEAWGRADCGFTSESYQQGVLSATILYEILLGKATLYAVLVSALVLMAMVKRKDSRG | does not recognize any | substantially more sensitive | Lower concentrations of cognate peptide were required | dose-dependent manner | 3 | lowest functional avidity among the three TCRs | lowest functional avidity | dose-dependent manner | – |
| – | – | T1D4 TCR: TCR specific to IGRP 241-260; TCRα SEQ ID NO: 19, TCRβ SEQ ID NO: 20 (protein) alpha: MKSLRVLLVILWLQLSWVWSQKDQVFQPSTVASSEGAVVEIFCNHSVSNAYNFFWYLHFPGCAPRLLVKGSKPSQQGRYNMTYERFSSSLLILQVREADAAVYYCAVEDLNQAGTALIFGKGTTLSVSSNIQNPDPAVYQLRDSKSSDKSVCLFTDFDSQTNVSQSKDSDVYITDKTVLDMRSMDFKSNSAVAWSNKSDFACANAFNNSIIPEDTFFPSPGKGSFGAFAGCFLASGMARFCPELWSMMSKTPLIGGLG beta: MGSRLLCWVLLCLLGAGPVKAGVTQTPRYLIKTRGQQVTLSCSPISGHRSVSWYQQTPGQGLQFLFEYFSETQRNKGNFPGRFSGRQFSNSRSEMNVSTLELGDSALYLCASSLALGQGNQQFFGPGTRLTVLEDLKNVFPPEVAVFEPSEAEISHTQKATLVCLATGFYPDHVELSWWVNGKEVHSGVSTDPQPLKEQPALNDSRYCLSSRLRVSATFWQNPRNHFRCQVQFYGLSENDEWTQDRAKPVTQIVSAEAWGRADCGFTSESYQQGVLSATILYEILLGKATLYAVLVSALVLMAMVKRKDSRG | – | – | Lower concentrations of cognate peptide were required | dose-dependent manner | – | – | – | dose-dependent manner | 0.1 |
| – | – | T1D5-1 TCR: TCR specific to IGRP 305-324; TCRα SEQ ID NO: 29, TCRβ SEQ ID NO: 30 (protein) alpha: MLLITSMLVLWMQLSQVNGQQVMQIPQYQHVQEGEDFTTYCNSSTTLSNIQWYKQRPGGHPVFLIQLVKSGEVKKQKRLTFQFGEAKKNSSLHITATQTTDVGTYFCAGQTGANNLFFGTGTRLTVIPYIQNPDPAVYQLRDSKSSDKSVCLFTDFDSQTNVSQSKDSDVYITDKTVLDMRSMDFKSNSAVAWSNKSDFACANAFNNSIIPEDTFFPSPGKGSFGAFAGCFLASGMARFCPELWSMMSKTPLIGGLG beta: MGCRLLCCAVLCLLGAVPMETGVTQTPRHLVMGMTNKKSLKCEQHLGHNAMYWYKQSAKKPLELMFVYSLEERVENNSVPSRFSPECPNSSHLFLHLHTLQPEDSALYLCASSQEVGTVPNQPQHFGDGTRLSILEDLNKVFPPEVAVFEPSEAEISHTQKATLVCLATGFFPDHVELSWWVNGKEVHSGVSTDPQPLKEQPALNDSRYCLSSRLRVSATFWQNPRNHFRCQVQFYGLSENDEWTQDRAKPVTQIVSAEAWGRADCGFTSVSYQQGVLSATILYEILLGKATLYAVLVSALVLMAMVKRKDF | – | – | – | dose-dependent manner | 1.0 | – | – | dose-dependent manner | – |
